Source: patent publication US20100311648A1
pKi: −log10 of the molar value.

Key:
[1] = molecular target: human melanocortin-4 receptor (human) (UniProt P32245); assay: [I125]-NDP-α-MSH competition, hMC4-R HEK-293 membranes
[2] = molecular target: human melanocortin-4 receptor (human) (UniProt P32245); assay: cell-based or functional assay
[3] = molecular target: melanocortin-1 receptor (mouse (B-16 melanoma cells); in some instances human (hMC1-R)) (UniProt Q01727); assay: [I125]-NDP-α-MSH competition, MC1-R membranes
Chain of melanocortin-1 receptor (mouse (B-16 melanoma cells); in some instances human (hMC1-R)) (Q01727 whole entry): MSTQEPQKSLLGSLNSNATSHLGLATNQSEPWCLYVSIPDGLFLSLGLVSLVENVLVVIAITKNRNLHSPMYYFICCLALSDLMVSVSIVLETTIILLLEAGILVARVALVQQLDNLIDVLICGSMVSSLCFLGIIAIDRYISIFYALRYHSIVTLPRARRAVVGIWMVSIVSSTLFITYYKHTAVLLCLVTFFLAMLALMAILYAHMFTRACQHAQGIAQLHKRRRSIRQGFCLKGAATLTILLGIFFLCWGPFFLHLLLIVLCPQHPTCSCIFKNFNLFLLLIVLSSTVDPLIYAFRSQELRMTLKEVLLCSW

Chain of human melanocortin-4 receptor (human) (P32245 whole entry): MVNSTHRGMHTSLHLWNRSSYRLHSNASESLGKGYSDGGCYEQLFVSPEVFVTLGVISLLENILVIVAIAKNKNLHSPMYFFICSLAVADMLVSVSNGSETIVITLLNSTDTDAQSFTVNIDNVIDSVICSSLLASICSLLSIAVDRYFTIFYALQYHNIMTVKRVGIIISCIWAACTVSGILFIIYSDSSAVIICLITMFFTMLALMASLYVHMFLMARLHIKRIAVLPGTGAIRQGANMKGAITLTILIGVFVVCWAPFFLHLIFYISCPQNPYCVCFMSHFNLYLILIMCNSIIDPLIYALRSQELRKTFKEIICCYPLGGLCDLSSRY

| Substance | pKi [1] | EC50, cAMP, 0.1 ng/mL Doxycycline [2] | EC50, cAMP, 10 ng/mL Doxycycline [2] | Intrinsic Activity, cAMP, 0.1 ng/mL Doxycycline [2] | Intrinsic Activity, cAMP, 10 ng/mL Doxycycline [2] | pKi [3] |
| --- | --- | --- | --- | --- | --- | --- |
| Ac-Arg-cyclo(Glu-Hyp-D-Phe(4-F)-Arg-Trp-Orn)-NH2 (peptide) | 9.00 | 0.45 nM | 0.14 nM | 62% | 95% | 7.05 |
| Ac-Arg-cyclo(Glu-Met(O2)-D-Phe(4-F)-Arg-Trp-Orn)-NH2 (peptide) | 8.70 | 0.85 nM | 0.075 nM | 55% | 91% | 7.48 |
| Ac-Arg-cyclo(Glu-Orn-D-Phe(2-Cl)-Arg-Trp-Orn)-OH (peptide) | 8.10 | 2 nM | 0.235 nM | 74% | 93% | 8.10 |
| Ac-Arg-cyclo(Glu-Orn-D-Phe(3-Cl)-Arg-Trp-Orn)-OH (peptide) | 7.70 | 10 nM | 0.8 nM | 28% | 98% | 7.64 |
| Ac-Arg-cyclo(Glu-Thr(Bzl)-D-Phe(2-Cl)-Arg-Trp-Orn)-NH2 (peptide) | 9.46 | 0.37 nM | 0.157 nM | 30% | 93% | 7.92 |
| Ac-D-Arg-cyclo(Orn-His-D-Phe(2-Cl)-Arg-Trp-Glu)-NH2 (peptide) | 9.00 | 0.21 nM | 0.085 nM | 94% | 94% | 8.70 |
| Ac-D-Arg-cyclo(Orn-His-D-Phe(3,4-diF)-Arg-Trp-Glu)-NH2 (peptide) | 9.60 | 0.075 nM | 0.075 nM | 56% | 92% | 9.15 |
| Ac-D-Arg-cyclo(Orn-His-D-Phe(3-Cl)-Arg-Trp-Glu)-NH2 (peptide) | 9.22 | 0.64 nM | 0.4 nM | 22% | 95% | 8.52 |
| Ac-D-Arg-cyclo(Orn-His-D-Phe(4-CN)-Arg-Trp-Glu)-NH2 (peptide) | 9.22 | 0.325 nM | 0.2 nM | 31% | 99% | 8.22 |
| Ac-D-Arg-cyclo(Orn-His-D-Phe(4-F)-Arg-Trp-Glu)-NH2 (peptide) | 9.19 | 0.25 nM | 0.095 nM | 89% | 100% | 9.00 |
